# Test results reported in publication doi:10.1101/2019.12.13.875658 (bioRxiv, 2019).
# B1: Cyclic AMP receptor protein (CAP) (natural protein)
# chain: MVLGKPQTDPTLEWFLSHCHIHKYPSKSTLIHQGEKAETLYYIVKGSVAVLIKDEEGKEMILSYLNQGDFIGELGLFEEGQERSAWVRAKTACEVAEISYKKFRQLIQVNPDILMRLSAQMARRLQVTSEKVGNLAFLDVTGRIAQTLLNLAKQPDAMTHPDGMQIKITRQEIGQIVGCSRETVGRILKMLEDQNLISAHGKTIVVYGTR
# Columns and labels:
# cryo-EM structure = target: the molecule itself; assay: cryo-EM structure
# β subunit of RNAP = β subunit of RNAP (E. coli, UniProt P0A8V2 1-1342); assay: cryo-EM structure
# Sequence of β subunit of RNAP (P0A8V2 whole entry): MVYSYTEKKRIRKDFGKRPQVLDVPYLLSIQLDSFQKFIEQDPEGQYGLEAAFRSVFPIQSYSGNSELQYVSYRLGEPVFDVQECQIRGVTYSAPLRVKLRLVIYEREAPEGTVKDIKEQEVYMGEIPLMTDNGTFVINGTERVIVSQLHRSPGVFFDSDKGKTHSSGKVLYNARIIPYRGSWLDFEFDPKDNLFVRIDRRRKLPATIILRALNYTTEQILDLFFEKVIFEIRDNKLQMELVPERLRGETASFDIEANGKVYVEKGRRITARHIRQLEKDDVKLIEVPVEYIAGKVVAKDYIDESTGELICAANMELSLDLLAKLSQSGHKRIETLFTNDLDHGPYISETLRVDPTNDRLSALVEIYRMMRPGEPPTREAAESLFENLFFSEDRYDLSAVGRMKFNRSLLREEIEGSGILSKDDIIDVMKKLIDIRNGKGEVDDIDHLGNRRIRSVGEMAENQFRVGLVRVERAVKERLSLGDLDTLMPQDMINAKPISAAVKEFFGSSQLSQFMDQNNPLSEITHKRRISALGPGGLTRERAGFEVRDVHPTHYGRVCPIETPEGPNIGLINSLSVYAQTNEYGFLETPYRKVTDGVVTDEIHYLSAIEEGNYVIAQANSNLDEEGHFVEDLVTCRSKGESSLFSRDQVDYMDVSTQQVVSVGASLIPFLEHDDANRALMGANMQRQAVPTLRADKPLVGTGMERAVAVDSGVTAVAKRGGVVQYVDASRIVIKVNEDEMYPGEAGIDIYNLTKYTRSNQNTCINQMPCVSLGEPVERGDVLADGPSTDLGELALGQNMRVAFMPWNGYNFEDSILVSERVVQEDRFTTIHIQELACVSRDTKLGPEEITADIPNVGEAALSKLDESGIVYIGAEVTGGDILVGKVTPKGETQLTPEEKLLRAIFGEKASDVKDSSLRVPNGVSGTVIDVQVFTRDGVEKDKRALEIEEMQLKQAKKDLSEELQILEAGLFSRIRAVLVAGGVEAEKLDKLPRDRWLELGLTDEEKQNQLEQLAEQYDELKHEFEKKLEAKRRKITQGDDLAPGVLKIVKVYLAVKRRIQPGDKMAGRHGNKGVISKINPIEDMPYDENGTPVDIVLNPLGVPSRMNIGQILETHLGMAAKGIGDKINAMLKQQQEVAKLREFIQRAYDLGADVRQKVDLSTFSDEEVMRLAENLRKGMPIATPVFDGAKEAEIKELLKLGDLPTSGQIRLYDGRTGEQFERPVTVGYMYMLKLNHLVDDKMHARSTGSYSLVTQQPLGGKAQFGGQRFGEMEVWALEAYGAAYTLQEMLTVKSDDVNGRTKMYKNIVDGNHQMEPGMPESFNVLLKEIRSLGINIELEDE
binder,measurement,setting,value
B1,stoichiometry N,cryo-EM structure,2
same,binding result,β subunit of RNAP,binds
